The test system of one experiment is HIV-1 LTR. As to the kind of experiment: Tat-activated integrated LTR-CAT reporter assay in HeLa-CD4-LTR cells. It is filed as cell-based. On the procedure: Cell lines transfections and assays. Transfections of HeLa cells were performed as previously described (49). HeLa-CD4-LTR (9) cells were grown in DMEM supplemented with 10% FCS and transfected with 20 μg plasmid DNA (prepared using EndoFree plasmid kit, Qiagen, Valencia, Calif.) by calcium phosphate coprecipitation as per manufacturer's instructions (ProFection system, Promega, Madison, Wis.). After 30 minutes at room temperature, the solution was added to the cells (2.5-4×10^5 cells/plate). Twelve hours after transfection, the cells were washed with PBS and fed fresh medium. Forty-eight hours later the cells were harvested, cellular extracts prepared, and CAT assays performed as previously described (49). To control for the effect of transcription factor overexpression on general cellular promoters a reporter construct driven by the beta-actin promoter, pH[…]-actin-luciferase (66), was used in cotransfection and CAT expression normalized for luciferase activity. Other plasmids used have been previously described (2, 49). […] Up to 30 μl of cellular extract (normalized for protein concentration) in a final volume of 130 μl was used for luciferase reactions.
The LTR reporter carried by HeLa-CD4-LTR cell line exists within the native chromatin structure of the genome. […]

Experiment [1] relates to RCS oligonucleotide (−10 to +27 of HIV-1 LTR). Format: binding.
In the next experiment the target is T1, LSF (Homo sapiens, UniProt Q12800, A491Q).
T1 construct: host or cells: in vitro transcription/translation in rabbit reticulocyte lysate (T7 RNA polymerase)
T1 sequence (Q12800 1-502 A491Q): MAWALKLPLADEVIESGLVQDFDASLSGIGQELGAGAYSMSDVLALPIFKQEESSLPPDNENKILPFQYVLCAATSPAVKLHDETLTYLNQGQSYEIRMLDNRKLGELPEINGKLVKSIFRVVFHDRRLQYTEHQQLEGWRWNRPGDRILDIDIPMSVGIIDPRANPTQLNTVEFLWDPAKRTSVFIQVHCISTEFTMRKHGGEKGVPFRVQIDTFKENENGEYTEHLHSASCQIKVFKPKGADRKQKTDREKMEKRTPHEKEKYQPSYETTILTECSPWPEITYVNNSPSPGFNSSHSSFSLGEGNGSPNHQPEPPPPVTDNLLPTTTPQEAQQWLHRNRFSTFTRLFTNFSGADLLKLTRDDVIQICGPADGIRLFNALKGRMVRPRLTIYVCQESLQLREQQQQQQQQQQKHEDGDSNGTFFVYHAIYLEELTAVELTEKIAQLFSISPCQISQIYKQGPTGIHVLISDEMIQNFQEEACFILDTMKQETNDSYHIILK
The experiment is described as follows: In vitro protein interaction mapping: GST-YY1/GFI-1 chimeras retaining 35S-labeled LSF. The settings on record: glutathione-agarose capture, 35S-methionine labeled LSF. Format: binding. From the text:
In vitro protein interaction mapping: Glutathione-S-transferase (GST)-YY1/GFI-1 chimeras (17) and G3ST-LSF deletion (54, 55) constructs were expressed and harvested in E. coli as previously described. Proteins were visualized by Coomassie brilliant blue staining and protein content was normalized by densitometric analysis. LSF was transcribed and translated in vitro by T7 RNA polymerase in rabbit reticulocyte (Promega, Madison, Wis.) in the presence of ^35S-methionine as per manufacturer's instruction (54). Following capture of GST-YY1/GFI-1 chimera proteins on glutathione-agarose beads, equal volumes of beads were incubated with ^35S-methionine labeled LSF in incubation buffer (17) for 1 hour at 4° C. The beads were washed in incubation buffer/100 mM KCl and resuspended in 20 μl 2×SDS loading buffer. Retained LSF was separated in a 10% SDS gel, dried, and visualized by autoradiography. Similarly, YY1 was transcribed and translated in vitro, incubated with captured GST-LSF constructs, and retained YY1 was by autoradiography following electrophoresis.
YY1 DNA-binding activity and many YY1-protein interactions map to the carboxyl-terminal zinc fingers of the molecule. Therefore, YY1 interaction domains were mapped using chimeric YY1 recombinants (FIG. 2c). […]

Read-outs that look alike come from different tables or passages of the source.

B1: LSF: lymphoid transcription factor (LBF-1, CP-2) that represses LTR-driven transcription (SEQ ID NO: 5) (protein, listed as Homo sapiens)
chain: T1 sequence (Q12800 1-502 A491Q)
Regarding B1, the “Tat-activated CAT expression from integrated LTR reporter” value with HIV-1 LTR (200 ng pAR-Tat, 2.5 μg CMV expression plasmid, normalized to β-actin-luciferase) is reported as “had no effect on expression of CAT”. Further, the “Effect on YY1-mediated repression of integrated LTR-CAT expression” value in the experiment with HIV-1 LTR (with YY1 transfection, trichostatin-A added to culture medium (data not shown)) is “augmented repression mediated by YY1”. For the same molecule, the “Complex formation with the RCS in EMSA” value in experiment [1] (10 ng protein alone) is recorded as “formed a diffuse faintly visible EMSA band”; in experiment [1] (20 ng protein alone), “induced a very prominent protein-DNA complex”.

B2: YZnFs: GST fused to all four YY1 zinc fingers without the YY1 amino-terminal region (protein)
chain: TIACPHKGCTKMFRDNSAMRKHLHTHGPRVHVCAECGKAFVESSKLKRHQLVHTGEKPFQCTFEGCGKRFSLDFNLRTHVRIHTGDRPYVCPFDGCNKKFAQSTNLKSHILTHAKAKNNQ
modifications: left off: a dimerising Fc or GST
notes: GST fused to all four YY1 zinc fingers without the YY1 amino-terminal region
In the case of B2, the “Binding of LSF in vitro by GST-fused construct” value with LSF was “binds LSF with equal avidity to intact GST-YY1”.

The values above are taken from US20090081183A1, “HIV Transcription Repressor Complex and Compositions and Methods Based Thereon” (priority 1997, published 2009).
